The record followed here is paper PMC4338625, “Comparison of MAPK specificity across the ETS transcription factor family identifies a high-affinity ERK interaction required for ERG function in prostate cells” (Cell Communication and Signaling : CCS, 2015).

The term Kd denotes the equilibrium constant for the complex coming apart.

In assay [1] the target is ERK2 (pERK2, activated by co-expression with constitutively active MEK) (UniProt P63086). Nature of the assay: MST; 200 nM fluorescently labeled (RED-NHS) ERK2 incubated 30 minutes at room temperature in the dark with different concentrations of purified ETS1 or ERG; standard glass capillaries; NanoTemper Monolith NT.115, LED 80%, IR laser 80%.
For assay [2], the target named is T1, ETS1, full-length human, 6x His-tagged (human, UniProt P14921 1-441).
T1 construct: human ETS1, full-length cDNA in pET28a
T1 sequence (looked up): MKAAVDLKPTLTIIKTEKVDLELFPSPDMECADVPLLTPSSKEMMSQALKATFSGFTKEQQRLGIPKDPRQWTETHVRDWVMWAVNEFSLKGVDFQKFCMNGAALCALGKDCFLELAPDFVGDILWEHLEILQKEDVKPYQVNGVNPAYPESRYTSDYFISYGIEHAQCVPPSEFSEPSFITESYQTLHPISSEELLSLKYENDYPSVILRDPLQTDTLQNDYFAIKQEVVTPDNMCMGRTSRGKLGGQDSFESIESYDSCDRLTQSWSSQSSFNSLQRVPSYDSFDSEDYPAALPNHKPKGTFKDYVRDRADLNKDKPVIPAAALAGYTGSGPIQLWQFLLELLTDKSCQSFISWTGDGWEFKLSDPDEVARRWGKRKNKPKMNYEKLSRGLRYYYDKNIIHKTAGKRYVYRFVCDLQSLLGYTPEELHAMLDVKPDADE
The assay is described as above. Particulars: both partners purified.

In the case of “ERG (isoform 1), full-length human, 6x His-tagged (natural protein)”, in assay [1], the Kd was 230 nM.

B1: ERK2 (pERK2, activated by co-expression with constitutively active MEK) (enzyme, UniProt P63086 1-358, looked up)
chain: MAAAAAAGPEMVRGQVFDVGPRYTNLSYIGEGAYGMVCSAYDNLNKVRVAIKKISPFEHQTYCQRTLREIKILLRFRHENIIGINDIIRAPTIEQMKDVYIVQDLMETDLYKLLKTQHLSNDHICYFLYQILRGLKYIHSANVLHRDLKPSNLLLNTTCDLKICDFGLARVADPDHDHTGFLTEYVATRWYRAPEIMLNSKGYTKSIDIWSVGCILAEMLSNRPIFPGKHYLDQLNHILGILGSPSQEDLNCIINLKARNYLLSLPHKNKVPWNRLFPNADSKALDLLDKMLTFNPHKRIEVEQALAHPYLEQYYDPSDEPIAEAPFKFDMELDDLPKEKLKELIFEETARFQPGYRS
modifications: phosphorylated by co-expressed constitutively active MEK (pERK2); fluorescently labeled with amine reactive RED-NHS dye (Monolith Protein Labeling Kit RED-NHS)
notes: also called ERK2 kinase; source: co-expressed with constitutively active MEK, purified from bacteria as described [52]
Molecule B1 yielded a Kd in assay [2] of 1790 nM.
